Test results reported in patent US9657279B2, “Biological systems for production of commercially valuable compounds” (priority 2007, dated 2017).

B1: B. maritima: methyl halide transferase from Batis maritima, SEQ ID NO: 3 (protein, listed as Batis maritima)
chain: MSTVANIAPVFTGDCKTIPTPEECATFLYKVVNSGGWEKCWVEEVIPWDLGVPTPLVLHLVKNNALPNGKGLVPGCGGGYDVVAMANPERFMVGLDISENALKKARETFSTMPNSSCFSFVKEDVFTWRPEQPFDFIFDYVFFCAIDPKMRPAWGKAMYELLKPDGELITLMYPITNHEGGPPFSVSESEYEKVLVPLGFKQLSLEDYSDLAVEPRKGKEKLARWKKMNN

Tests used:
S. cerevisiae W303a = experiment: Methyl iodide toxicity assay in yeast; assay type: cell-based; conditions: W303a lab strain, OD600 at 24 hours of growth, commercially available CH3I added
Text: (§1) FIG. 11A-D: Methyl iodide production in recombinant S. cerevisiae. FIG. 11A. CH3I production pathway. The B. maritima MHT is expressed with a N-terminal vacuole targeting tag. The […] MHT methylates iodide ions using SAM as a methyl donor. FIG. 11B, CH3I measured in culture headspace over time. Activity on glucose-grown cells is shown. FIG. 11C, CH3I yields in grams per liter of culture per day. Values for the culturable red algae E. muricata are taken from the literature. Yields from B. maritima MHT-expressing E. coli and S. cerevisiae are calculated by comparison to standard curves. FIG. 11D, CH3I toxicity in yeast. Exponential phase cultures were diluted to an OD600 of 0.05 and commercially available CH3I was added. OD600 was measured at 24 hours of growth. The W303a lab strain is shown in filled boxes, the DNA methylation-sensitive RAD50Δ mutant is shown in open boxes.
(§2) Individual colonies were inoculated in YP media with 2% glucose and grown overnight. Cultures were diluted to an OD600 of 0.05 and methyl iodide was added to the specified amount. […] OD600 was measured by spectrometry with YP media used as a blank. Each data point was performed in triplicate. The RAD50Δ mutant was obtained from the Saccharomyces Genome Deletion Project (Invitrogen).

RAD50Δ mutant = assay type: cell-based, S. cerevisiae; conditions: RAD50Δ mutant compared with W303a, OD600 at 24 hours
Text: as §1, §2

E. coli [1] = conditions: library of 89 genes, 100 mM sodium halide salt, headspace GC-MS
Description: Methyl halide production was sampled by analyzing the headspace gas using GC-MS (Supplementary Information).
Bacteria carrying MHT expression vectors were inoculated from freshly streaked plates and grown overnight. Cells were diluted 100-fold into media containing 1 mM IPTG and 100 mM appropriate sodium halide salt. Culture tubes were sealed with a rubber stopper and grown at 37 degrees for 3 hours. Yeast carrying MHT expression vectors were streaked on uracil dropout plates from freezer stocks (15% glycerol) and grown for 48 hours. Individual colonies were inoculated into 2 mL of synthetic complete uracil dropout media and grown overnight at 30 degrees. Cultures were next inoculated into 100 mL fresh synthetic complete uracil dropout media and grown for 24 hours. […] 10 mL of this concentrated culture was aliquoted into 14 mL culture tubes and sealed with a rubber stopper. Cultures were grown at 30 degrees with 250 rpm shaking.

E. coli [2] = tested on: E. coli
Description: Methyl halide production can be measured by gas chromatography. In the experiments described below an Agilent gas chromatography/mass spectrometry (GC/MS) system was used. Most often the “AIR.U” tune file, uses an ionization voltage of 1341. In some experiments an ionization voltage of about 1250 was used. A solvent delay of 0 was set and the scan parameters set to 15-100 MW. The injection port and column were preset to 50° C. The sample to be tested was mixed by shaking for a few seconds. 100 μL of the headspace gas was extracted with a gas-tight syringe. The sample gas was manually injected into the GCMS injection port. The GCMS program was started with the following settings: 1:00 at 50° C.; a ramp of 10° C. per min to 70° C. (the sample typically came off at ˜52° C.); 1:00 at 70° C. The column was then cleaned (ramp to 240° C. for 2 minutes). The sample peak was identified by extracting the GC peak corresponding to 50MW (−0.3, +0.7). This peak was integrated to produce the “GC 50MW” data.
For each strain a single colony was picked and grown overnight (10-14 hrs) in 20 mL of LB miller in a 30 mL glass test tube with aeration (a loose cap) at 37 C and 250 rpm shaking. The culture was spun down in a swinging bucket centrifuge for 5 min @3000×g. […]

S. cerevisiae W303 = experiment: Methyl iodide production by vacuole-targeted MHT in yeast; assay type: cell-based; conditions: N-terminal carboxypeptidase Y tag versus cytosolic enzyme, vector pCM190
Text: In one approach, for illustration and not limitation, the coding sequence of B. maritima methylchloride transferase (MCT) is synthesized and cloned into a high copy vector under the control of a tet-repressible CYC promoter (plasmid pCM190, Gari et al, 1997, Yeast 13:837-48.). The MCT coding sequence is fused to a N-terminal peptide domain from carboxypeptidase Y known to target pendant proteins to the yeast vacuole (amino acid sequence: […] (SEQ ID NO:1), Valls et al., 1990, J Cell Biol. 111:361-8.) This expression system is transformed into S. cerevisiae strain W303a. […] Cultures are grown at 30 degrees with 250 rpm shaking, and methyl iodide production assayed at specified intervals via GC-MS. […] Oven temperature is programmed from 50 degrees (1 min) to 60 degrees (10 degrees/min).
We fused a 16 amino acid vacuolar targeting tag ([…]) from yeast carboxypeptidase Y to the N-terminus of the B. maritima MCT and expressed the enzyme from the vector pCM190. […] We next expressed the cytosolic and vacuolar targeted enzymes in a VPS33A background, which is unable to form functional vacuoles.

Molecule	level up to which yeast were resistant to deleterious methylating effects of methyl iodide (S. cerevisiae W303a) [µg/mL]	sensitivity to methyl iodide (RAD50Δ mutant)	methyl halide activity on chloride, bromide and iodide (E. coli [1])	methyl bromide production (E. coli [2]; 165 mM NaBr, 100 uM IPTG, 1.5 hours, headspace GC/MS)	specificity of methyl halide production (E. coli [2]; methyl bromide versus methyl iodide)	increase in methyl iodide production rate by targeting to the vacuole (S. cerevisiae W303) [%]
CI [methyl iodide]	> 5000	increased sensitivity	–	–	–	–
B1	–	–	highest activity of all genes on each ion	best	significant specificity for methyl bromide production	50
